According to the nanobody polyreactivity screen of Harvey et al. (2022):

Assay: yeast display, Sf9 membrane polyspecificity reagent, FACS + sequencing; frameworks hold sequencing errors
Procedure, shortened: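 Nanobodies from a synthetic yeast display library (Saccharomyces cerevisiae BJ5465), induced 36–48 hours with galactose, were stained 1 hour at 4 °C with 10% biotinylated, detergent-solubilized Sf9 membrane reagent, enriched on streptavidin microbeads, then FACS-sorted. Anti-HA (expression) and streptavidin (reagent binding) fluorescence set low and high (top ~1%) gates. Polyreactivity labels come from the gate of origin. Genes were colony-PCR amplified, MiSeq 2 × 250 sequenced and filtered by CDR length.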
With “QVQLVESGGGLVQAGGSLRLSCAASGSIFFTNAKGLSRQAPGKERELVAAITSSGTRTYYADSVKGRFTISRDNAKNTVYLQKNSLKPEDTAVYYCAVEVQYKYDYSHTYRYYYWGQGSQVTVSS” the “polyreactivity (PSR sort gate)” value was “high polyreactivity”. In the case of “QVQLVESGGGLVQAGGSLRLSCAASGSIFFVNAMGWYRQAPGKERELVAAITWNAGRTYYADSVKGRFTISRDNAKNTVYLQMNSLKPEDTAVYYCNARAYYSSAIYDYWGQGTQVTVSS”, the “polyreactivity (PSR sort gate)” value is reported as “low polyreactivity”. With “QVQLVESGGGLVQAGGSLRLSCAASGSIFFWYAMGWYRQAPGKERELVAAISRGGRTTYADSVKGRFTISRDNAKNTVYLQMNSLKPEDTAVYYCAAYRYFTYFYYSDYPYNYWGQGTQVTVSS” the “polyreactivity (PSR sort gate)” value was “high polyreactivity”. With “QVQLVESGGGLVQAGGSLRLSCAASGSIFFYALGWYRQAPGKERELVADITYTGGSKYADSVKGRFTISRDNAKNTVYLQLNRLKPEDTAVYYCAKLDGGLFDYWGQGTQVTVSS” the “polyreactivity (PSR sort gate)” value was “low polyreactivity”. With “QVQLVESGGGLVQAGGSLRLSCAASGSIFFYYAMGRYRQAPGKEMELVATINIGAGSTNYADSVKGRFTISRDNAKNTVYLQMNSLKPEDTAVYYCAADVNFYQDYIYLTDYDYWGQGTQVTVSS” the “polyreactivity (PSR sort gate)” value was “low polyreactivity”. In the case of “QVQLVESGGGLVQAGGSLRLSCAASGSIFFYYAMGRYRQARGKERQLVAAISYSDGTTYYADSVKGRFTISRDNAKNTVYLQMNSLKPEDTAVYYCAADLWVGLVTLWDGYVQYDYWGQGTQVTVSS”, the “polyreactivity (PSR sort gate)” value is reported as “low polyreactivity”. With “QVQLVESGGGLVQAGGSLRLSCAASGSIFFYYAMGWYRQAPGKERELVAAINSDGSTNYADSVKGRFTISRDNAKNTVYLQMNSLKPEDTAVYYCNADTPYYQGEYNYWGQGTQVTVSS” the “polyreactivity (PSR sort gate)” value was “low polyreactivity”. In the case of “QVQLVESGGGLVQAGGSLRLSCAASGSIFFYYAMGWYRQAPGKERELVATITSGGSTSYADSVKGRFTISRDNAKNTVYLQMNSLKPEDTAVYYCAARKVTKSTYNYWGQGTQVTVSS”, the “polyreactivity (PSR sort gate)” value is reported as “low polyreactivity”. In the case of “QVQLVESGGGLVQAGGSLRLSCAASGSIFGANAMGLYRQAPGKERELLATITLRDGSTYYADSVKGRFTISRDNAKNTVYLQRNSLKPEDTAVYYCATYYSAINYGCSKTILYDYWGQGTQVTVSS”, the “polyreactivity (PSR sort gate)” value is reported as “low polyreactivity”. With “QVQLVESGGGLVQAGGSLRLSCAASGSIFGANAMGWYRQAPAKEWELVAAITRGGRTNYADSVKGRFTISRDNAKISVYLQMNSLKPEDTAVYYCNAAWGTGRWAGYISGGDWGQGTHVTVSS” the “polyreactivity (PSR sort gate)” value was “high polyreactivity”. In the case of “QVQLVESGGGLVQAGGSLRLSCAASGSIFGANAMGWYRQAPGKERELVAAISTRGGRTYYADSVKGRFTISRDIAKNTVYLQMNSLKPEDTAVYYCAAYSSYPEYRRGKYDYWGQGTQVTVSS”, the “polyreactivity (PSR sort gate)” value is reported as “high polyreactivity”. With “QVQLVESGGGLVQAGGSLRLSCAASGSIFGANAMGWYRQAPGTVRELVAAISRRGGSTYYADSVKGRFTISRDNAKNTVHLQMNSLKPEDTAVYYCNTYPQSLGVKYGYWGQGTQVTVSS” the “polyreactivity (PSR sort gate)” value was “high polyreactivity”. With “QVQLVESGGGLVQAGGSLRLSCAASGSIFGANGMGWYRQAPGKESELVAASTSGGSTTYADYVKGRFTISRDNAKNTVYLQINSLKPEDTAVYYCAADECTPYWPVDNFDYWGQGTQVTVSS” the “polyreactivity (PSR sort gate)” value was “low polyreactivity”. For “QVQLVESGGGLVQAGGSLRLSCAASGSIFGAYAMGWYRQAPGKERELVAAISWRDGSTYYADSVKGRFTISRDNAKNTVYLQMNSLKPEDTAVYYCAAEYVYIFYDSDYWGQGTQVTVSS”, the “polyreactivity (PSR sort gate)” value was “high polyreactivity”. With “QVQLVESGGGLVQAGGSLRLSCAASGSIFGAYAMGWYRQAPGKERELVAVISRSGGRTYYADSVKGRFTISRDNAKNTVYLQMNSLKPVDTAVYYCAADTRYVQYDYWGQGTQVTVSS” the “polyreactivity (PSR sort gate)” value was “high polyreactivity”. With “QVQLVESGGGLVQAGGSLRLSCAASGSIFGDNAMGWYRKAPGKERELVAGISSSGGRTYYADSVKGRFTISRDNAKNTVYLQMNSLKPEVTAVYYCAKEPGWGRRSTTAYDYCGQGTQVTVSS” the “polyreactivity (PSR sort gate)” value was “low polyreactivity”. In the case of “QVQLVESGGGLVQAGGSLRLSCAASGSIFGDNAMGWYRQAPGKERELVARISSGGNTYYADSVKGRFSISRDNAMNTVYLQMNSLKPEDTAVYYCAAAIIVRYKKFPYYYWGQGTQVTVSS”, the “polyreactivity (PSR sort gate)” value is reported as “high polyreactivity”. In the case of “QVQLVESGGGLVQAGGSLRLSCAASGSIFGDYAMGWYRQAPGKEREFVAGITRRGGRTYYADSVKGRFTISRDNAKNTVYLQMNSLKPEETAVYYCNAVYSSSLRSKYDYWGQGTQVTVSS”, the “polyreactivity (PSR sort gate)” value is reported as “high polyreactivity”. With “QVQLVESGGGLVQAGGSLRLSCAASGSIFGDYAMGWYRQAPGKERELVAAITSSGGITYYADSVKGRFTISRDNAKNTVYLQMNSLKPEDTAVYYCAAYGYGSNYRYTGYYYWGQGTQVTVSS” the “polyreactivity (PSR sort gate)” value was “low polyreactivity”. In the case of “QVQLVESGGGLVQAGGSLRLSCAASGSIFGDYAMGWYRQAPGKERELVADISSGGSTTYADSVKGRFTISRDNAKNTVYLQMNSLKPEDTAVYYCNAERGVPYGYWGQGTQVTVSS”, the “polyreactivity (PSR sort gate)” value is reported as “low polyreactivity”. With “QVQLVESGGGLVQAGGSLRLSCAASGSIFGDYVLGWYRQAPGKERELVASISESTDSTYYADSVKGRFTISRDNAKNTVYLQMNSLKPEDTAVYYCATAYPEWAVWGYDYWGQGTQVTVSS” the “polyreactivity (PSR sort gate)” value was “low polyreactivity”. For “QVQLVESGGGLVQAGGSLRLSCAASGSIFGDYVMGWNRQAPGKERELVAAINRGGSTYYADSVKGRFTISRDNAKNTVYLQMNSLKPEDTAVYYCAAGYPSWYYGYPYDSWGQGSQVTVSS”, the “polyreactivity (PSR sort gate)” value was “low polyreactivity”. For “QVQLVESGGGLVQAGGSLRLSCAASGSIFGENAMGWYRQAPGKERELVAAITWSGASTYYADSVKGRFTISRDNAKNTVYLQMNSLKPEETAVYYCNADRYVRYSTFDYWGQGTQVTVSS”, the “polyreactivity (PSR sort gate)” value was “high polyreactivity”. For “QVQLVESGGGLVQAGGSLRLSCAASGSIFGEYAMGWYRQAPGKERELVAAINVNGGRTYYADSVKGRFTISRDNAKNTVYLQMNSLKPEDTAVYYCNARSYASYRQGNTYGSWGQGTQVTVSS”, the “polyreactivity (PSR sort gate)” value was “high polyreactivity”. In the case of “QVQLVESGGGLVQAGGSLRLSCAASGSIFGEYTMGWYRQAPGKERELVAAISWNGGITYYADSVKGRFTISRDNAKNTVYLQMNSLKPEDTAVYYCAAETYPWSLFTYYSWGQGSQVTVSS”, the “polyreactivity (PSR sort gate)” value is reported as “low polyreactivity”. In the case of “QVQLVESGGGLVQAGGSLRLSCAASGSIFGFKVMGWYRQEPGKERELVAAITYSGGSTYYADSVKGRFTISRANAKNTVYIQMNSLKPEDTAVYYCAADTFTPYWWYSSLDEYWGQGTQVTVSS”, the “polyreactivity (PSR sort gate)” value is reported as “high polyreactivity”. In the case of “QVQLVESGGGLVQAGGSLRLSCAASGSIFGFNAMGWYRPAPGKERELVAGITSGDRTNYADSVKGRFTISRDNAKNTVYLQMNSLKPEDTAVYYCAARKYVFFKMYYWGQGTQVTVSS”, the “polyreactivity (PSR sort gate)” value is reported as “low polyreactivity”. With “QVQLVESGGGLVQAGGSLRLSCAASGSIFGFNAMGWYRQAPGKERELVAAINNGGSTNYADSVKGRFTISRDNAKNTVYLQMNSLKPEDTAVYYCSARLNYIRRGYWGQGTQVTVSS” the “polyreactivity (PSR sort gate)” value was “high polyreactivity”. For “QVQLVESGGGLVQAGGSLRLSCAASGSIFGFYAMGLYIQEPGKERELVAAITSGDSTHYADSVKGRFTISRDNAKNTVYLQMNSLKPEDTAVYYCATEYLYVDFFIRYDYWGQGTQVTVSS”, the “polyreactivity (PSR sort gate)” value was “low polyreactivity”. With “QVQLVESGGGLVQAGGSLRLSCAASGSIFGFYAMGWYRQAPGKERELVASISSSGDSTYYADSVKGRFTISRDNAKNTVYLQINSLKPEDTAVYYCAAVVYDIYGYEFDYWGQGTQVTVSS” the “polyreactivity (PSR sort gate)” value was “low polyreactivity”. For “QVQLVESGGGLVQAGGSLRLSCAASGSIFGGNAMGWYRQAPGKERELVAVISWSGGSTYYADSVKGRFTISRDNAKNTVYVQMNSLKPEDTAVYYCATSSVAEAKYVTEGTFDYWGQGTQVTVSS”, the “polyreactivity (PSR sort gate)” value was “low polyreactivity”. For “QVQLVESGGGLVQAGGSLRLSCAASGSIFGGYAMGWYRPAPGKERELVAAIDESGGSTYYADSVKGRFTISRDNAKNTVYLQMNSLKPEDTAVYYCLVFRDDSGPGDYYYWGQGTQVTVSS”, the “polyreactivity (PSR sort gate)” value was “low polyreactivity”. In the case of “QVQLVESGGGLVQAGGSLRLSCAASGSIFGGYAMGWYRQAPGKERELVAAISKTGGTTYYADSVKGRFTISRDNAKNTVYLQMNSLKPEDTAVYYCNAPKRYSGSAYGYGYWGQGTQVTVSS”, the “polyreactivity (PSR sort gate)” value is reported as “high polyreactivity”. With “QVQLVESGGGLVQAGGSLRLSCAASGSIFGGYAMGWYRQAPGKERELVAAISRTGGRTYYADSVKGRFTISRDNAKNTVYLQMNSLKPEDTAVYYCAARVVHQSRYSYEYWGQGTQVTVSS” the “polyreactivity (PSR sort gate)” value was “high polyreactivity”. With “QVQLVESGGGLVQAGGSLRLSCAASGSIFGGYAMGWYRQAPGKERELVAAISSGGSTYYADSVKGRFTISRDNAKNTVYLQMNSLKPEDTAVYYCATSTFAYRRNSYYYTRPRFGYWGQGTQVTVSS” the “polyreactivity (PSR sort gate)” value was “high polyreactivity”. With “QVQLVESGGGLVQAGGSLRLSCAASGSIFGGYAMGWYRQAPGKERELVAAITSGGGSTYYADSVKGRFTISRDNAKNTVYLQMNSLKPEDTAVYYCAALQSHGVDYDYWGQGTQVTVSS” the “polyreactivity (PSR sort gate)” value was “low polyreactivity”. For “QVQLVESGGGLVQAGGSLRLSCAASGSIFGGYAMGWYRQAPGKERELVASITASGGSTYYADSVKGRFTISRDNAKNTVYLQMNSLKPEDTAVYYCAAEVFSGYDYDYWGQGTQVTVSS”, the “polyreactivity (PSR sort gate)” value was “low polyreactivity”. For “QVQLVESGGGLVQAGGSLRLSCAASGSIFGGYGMGWYRQAPGKERELVAAITSGSSTYYADSVTGRFTISRDNAKNTVYLQMNSLKPEDTAVYYCAARPYPHSAYEGDYWGRGTQVTVSS”, the “polyreactivity (PSR sort gate)” value was “low polyreactivity”. With “QVQLVESGGGLVQAGGSLRLSCAASGSIFGGYGMGWYRQAPGKERELVAVITKRGGSTYYADSVKGRFTISRDNAKNTVYLQMNSLKPEDTAVYYCNKVGYYASVLGYDYWGQGTQVTVSS” the “polyreactivity (PSR sort gate)” value was “high polyreactivity”. With “QVQLVESGGGLVQAGGSLRLSCAASGSIFGGYTMGWYRQAPGKERELVAAISARGGNTYYADSVKGRFTISRDNAKNTVYLQMNSLKPEDTAVYYCAKVRYTQSYRGYGYWGQGTQVTVSS” the “polyreactivity (PSR sort gate)” value was “high polyreactivity”. In the case of “QVQLVESGGGLVQAGGSLRLSCAASGSIFGHNTMGWYRQPPGKERELVAAITWNGGRTYYADSVKGRFTISRDNAKNTVYLQMNSLKPEDTAVYYCNAVVKTYGYKAHRYPSSRLNYWGQGTQVTVSS”, the “polyreactivity (PSR sort gate)” value is reported as “high polyreactivity”. In the case of “QVQLVESGGGLVQAGGSLRLSCAASGSIFGHYAMGWYRQAPGKERELVAAISWSGTSTYYADSVKGRFTISRDNAKNTVYLQMNSLKPEDTAVYYCAAEASYNYGKYVVTYDYWGQGTQVTVSS”, the “polyreactivity (PSR sort gate)” value is reported as “high polyreactivity”. In the case of “QVQLVESGGGLVQAGGSLRLSCAASGSIFGIYAMGWYRQAPGKERELVATITYSGGTTYADSVKGRFTISRDNAKNTVYLQMNSLNPEDTAVYYCAAGGDYAYDCWGQGTQVTVSS”, the “polyreactivity (PSR sort gate)” value is reported as “low polyreactivity”.
